Paper doi:10.1101/2024.04.26.591305 (2024)

B1: U20 (msfGFPΔC10-Utr28-222) (domain or fragment)
chain: EHNDVQKKTFTKWINARFSKSGKPPINDMFTDLKDGRKLLDLLEGLTGTSLPKERGSTRVHALNNVNRVLQVLHQNNVELVNIGGTDIVDGNHKLTLGLLWSIILHWQVKDVMKDVMSDLQQTNSEKILLSWVRQTTRPYSQVNVLNFTTSWTDGLAFNAVLHRHKPDLFSWDKVVKMSPIERLEHAFSKAQTYL

target: α-skeletal muscle actin filaments (rabbit) (rabbit, UniProt P68135 1-377)

Binder | Kd [µM]
MGVADLIKKFESI (domain or fragment) [L22 (LifeactΔC4-msfGFPΔN7)] | 11.3
VADLIKKFESISKEE (domain or fragment) [L45 (msfGFPΔC9-LifeactΔN2)] | 4.5
B1 | 13.2
